The results in this text go back to patent US10845371B2, “Soluble MANF in pancreatic beta-cell disorders” (University of Massachusetts, priority 2012, dated 2020).

In test [1] the test system is INS-1 832/13 cells (a pancreatic β-cell line). In words: Reduced MEROS-GFP by FACS in INS-1 832/13 cells in high glucose with soluble MANF. To be noted: 25 mM glucose; 0.5 μg/mL soluble MANF (48 hours per FIG. 45). The format is cell-based, rat. The procedure: FIG. 45 is a graph of fluorescence-assisted cell sorting data showing the percentage of INS1 832/13 cells (pancreatic (3 cell line) containing the reduced form of EroGFP in the endoplasmic reticulum following culture in 11 mM glucose or 25 mM glucose (24 hours) (top panels and bottom panels, respectively), and treatment with 0 or 0.5 μg/mL soluble MANF for 48 hours (left panels and right panels, respectively). The cells were excited using a wavelength at 473 nm and an emission spectrum of 510 nm.
Further experiments were performed to determine whether soluble MANF can prevent fluctuations in the redox environment in the endoplasmic reticulum of pancreatic β-cells upon exposure to an agent that induces endoplasmic reticulum stress. Experiments were performed using INS-1 832/13 cells (a pancreatic β-cell line) transfected with a lentivirus vector expressing MEROS-GFP. The cells were cultured in 11 mM or 25 mM glucose, and either left untreated or treated with 0.5 μg/mL soluble MANF. The cells were then analyzed using FACS analysis using an excitation spectrum between 460-495 nm and an emission spectrum of between 520-570 nm (FITC-A optical filter) which allows for the specific detection of fluorescent emission from reduced EroGFP in the transfected cells.

For test [2], the system named is mouse pancreatic β-cell line (MIN6). The test is described as follows: Cleaved caspase-3 immunoblot in MIN6 cells treated with tunicamycin and soluble MANF. To be noted: tunicamycin 1 μM, 24 hours; 0, 40 or 200 nM soluble MANF, FIG. 8. The format is cell-based. The procedure: FIG. 8 is an immunoblot showing the levels of cleaved caspase-3 in a murine pancreatic β-cell line (MIN6) untreated or treated for 24-hours with 1 μM tunicamycin or 100 nM thapsigargin, and further treated with 0, 40, or 200 nM soluble MANF.
Additional experiments were performed to determine whether soluble MANF would decrease or delay endoplasmic reticulum stress-induced apoptosis in pancreatic β-cells treated with an endoplasmic reticulum stress-inducing chemical agent.

B1: soluble MANF: soluble mammalian form of mesencephalic astrocyte-derived neurotrophic factor, e.g. human SEQ ID NO: 2; species of tested protein not stated (protein)
chain: LRPGDCEVCISYLGRFYQDLKDRDVTFSPATIENELIKFCREARGKENRLCYYIGATDDAATKIINEVSKPLAHHIPVEKICEKLKKKDSQICELKYDKQIDLSTVDLKKLRVKELKKILDDWGETCKGCAEKSDYIRKINELMPKYAPKAASARTDL
Regarding B1, in test [1], the “Number of cells containing a detectable level of reduced MEROS-GFP” value is reported as “decrease in the number of cells containing a detectable level of reduced MEROS-GFP”. In test [2], the Caspase-3 cleavage entry was “significantly reduced the amount of caspase-3 cleavage”.
